The supplement of paper PMC9732359
± gives the uncertainty stated by the source.

Test: protein stability index of a GFP-peptide fusion (yeast GPS) (PSI 1-4); higher = more stable; sorted into four equal gates, so the index is relative within each strain
Summary of the method: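 Plasmids isolated from each sorting gate were PCR-amplified and Illumina-sequenced, and barcodes assigned the reads to strains. The gates, four of equal size, were set by GFP/Cherry fluorescence ratio on mid-log cultures in leucine-free medium. These cultures were yeast carrying a pooled library of tiled 17-residue yeast protein peptides fused downstream of GFP on a plasmid that also expresses Cherry. The protein stability index is the sum of every gate's read frequency times its gate number.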

LITKANKVSYYGNPTSK [RTT102]
protein stability index (doa10∆): 2.21 ± 0.044
protein stability index (pdr5∆): 1.89 ± 0.042
protein stability index (san1∆): 1.97 ± 0.089
protein stability index (ubr1∆): 2.2 ± 0.045

LIVDTHVQFRLGNVDAF [PRP8]
protein stability index (doa10∆): 2.75 ± 0.11
protein stability index (pdr5∆): 2 ± 0.11
protein stability index (san1∆): 2.32 ± 0.13
protein stability index (ubr1∆): 1.72 ± 0.066

LKIIYTGLCSFDYSVIL [YJL039C/NUP192]
protein stability index (doa10∆): 1.73 ± 0.081
protein stability index (pdr5∆): 1.5 ± 0.057
protein stability index (san1∆): 1.6 ± 0.11
protein stability index (ubr1∆): 1.59 ± 0.071

LKKNNYNSFPHSNLEKI [SIR4]
protein stability index (doa10∆): 3.06 ± 0.099
protein stability index (pdr5∆): 3.27 ± 0.094
protein stability index (san1∆): 3.19 ± 0.053
protein stability index (ubr1∆): 3.17 ± 0.054

LKKRYDLSYNFNVHEVP [YMR129W/POM152]
protein stability index (doa10∆): 2.78 ± 0.05
protein stability index (pdr5∆): 2.6 ± 0.056
protein stability index (san1∆): 2.7 ± 0.058
protein stability index (ubr1∆): 2.82 ± 0.042

LKKVQQQQQAAALANAN [SWI1]
protein stability index (doa10∆): 1.83 ± 0.063
protein stability index (pdr5∆): 2.45 ± 0.081
protein stability index (san1∆): 2.1 ± 0.073
protein stability index (ubr1∆): 1.78 ± 0.064

LKLCLGDHSSVPVALKG [YMR129W/POM152]
protein stability index (doa10∆): 2.79 ± 0.086
protein stability index (pdr5∆): 2.91 ± 0.06
protein stability index (san1∆): 2.74 ± 0.1
protein stability index (ubr1∆): 3 ± 0.048

LKLLVKLYTFLARRTDA [RPL18A]
protein stability index (doa10∆): 2.26 ± 0.073
protein stability index (pdr5∆): 1.99 ± 0.056
protein stability index (san1∆): 1.75 ± 0.065
protein stability index (ubr1∆): 1.97 ± 0.059

LKLNHIIANINSFTKGN [SNU114]
protein stability index (doa10∆): 1.52 ± 0.059
protein stability index (pdr5∆): 2.15 ± 0.062
protein stability index (san1∆): 1.83 ± 0.054
protein stability index (ubr1∆): 1.84 ± 0.035

LKMQQQQQQQQQQQQQQ [GAL11]
protein stability index (doa10∆): 2.69 ± 0.084
protein stability index (pdr5∆): 2.89 ± 0.073
protein stability index (san1∆): 2.62 ± 0.073
protein stability index (ubr1∆): 2.64 ± 0.067

LKNCKISNINIPISSET [SMC1]
protein stability index (doa10∆): 2.81 ± 0.17
protein stability index (pdr5∆): 2.95 ± 0.11
protein stability index (san1∆): 3.05 ± 0.08
protein stability index (ubr1∆): 2 ± 0.067

LKNKNFKCQEKDKGVYV [SIR2]
protein stability index (doa10∆): 3.53 ± 0.22
protein stability index (pdr5∆): 3.03 ± 0.093
protein stability index (san1∆): 3.38 ± 0.077
protein stability index (ubr1∆): 3.27 ± 0.17

LKNMLYVLSTAVEFESV [BRR2]
protein stability index (doa10∆): 1.77 ± 0.038
protein stability index (pdr5∆): 1.58 ± 0.037
protein stability index (san1∆): 1.88 ± 0.081
protein stability index (ubr1∆): 1.42 ± 0.032

LKPDLNKITNQGVTCLH [NAS6]
protein stability index (doa10∆): 2.36 ± 0.11
protein stability index (pdr5∆): 2.05 ± 0.052
protein stability index (san1∆): 3.13 ± 0.079
protein stability index (ubr1∆): 2.38 ± 0.059

LKQDLKKISSFKSLIDE [YGL172W/NUP49]
protein stability index (doa10∆): 2.81 ± 0.052
protein stability index (pdr5∆): 2.79 ± 0.05
protein stability index (san1∆): 3.08 ± 0.04
protein stability index (ubr1∆): 3.06 ± 0.034

LKQHNQNNLPPNFFLTL [BRR2]
protein stability index (doa10∆): 2.81 ± 0.064
protein stability index (pdr5∆): 3.07 ± 0.069
protein stability index (san1∆): 2.84 ± 0.069
protein stability index (ubr1∆): 2.94 ± 0.071

LKRFPKMSVTCNAQPIT [BRR2]
protein stability index (doa10∆): 2.33 ± 0.066
protein stability index (pdr5∆): 2.23 ± 0.06
protein stability index (san1∆): 2.02 ± 0.11
protein stability index (ubr1∆): 1.9 ± 0.037

LKSASKETAPVIDTLAA [RPL28]
protein stability index (doa10∆): 2.07 ± 0.072
protein stability index (pdr5∆): 2.41 ± 0.11
protein stability index (san1∆): 2.68 ± 0.073
protein stability index (ubr1∆): 2.12 ± 0.087

LKSHYYQTCKNSEYLKR [SMC2]
protein stability index (doa10∆): 1.54 ± 0.067
protein stability index (pdr5∆): 1.5 ± 0.057
protein stability index (san1∆): 1.36 ± 0.091
protein stability index (ubr1∆): 1.85 ± 0.046

LKTRDWIVVLPWFWLLP [POP1]
protein stability index (doa10∆): 1.51 ± 0.12
protein stability index (san1∆): 1.5 ± 0.23
protein stability index (ubr1∆): 2.02 ± 0.1

LKTVIILSSLYLLSIWV [CYT1]
protein stability index (doa10∆): 2.12 ± 0.11
protein stability index (pdr5∆): 1.45 ± 0.092
protein stability index (san1∆): 1.24 ± 0.15
protein stability index (ubr1∆): 1.17 ± 0.056

LKVLSEHLDCMNFISKE [PCI8]
protein stability index (doa10∆): 2.72 ± 0.09
protein stability index (pdr5∆): 3.14 ± 0.099
protein stability index (san1∆): 3.2 ± 0.047
protein stability index (ubr1∆): 3.03 ± 0.061

LKWVAVVPDLGHLNGHT [SSN2]
protein stability index (doa10∆): 3.12 ± 0.07
protein stability index (pdr5∆): 3.13 ± 0.058
protein stability index (san1∆): 3.1 ± 0.048
protein stability index (ubr1∆): 3.16 ± 0.054

LKYLDDLKAQFQELDSK [RPN9]
protein stability index (doa10∆): 3.13 ± 0.097
protein stability index (pdr5∆): 3.23 ± 0.069
protein stability index (san1∆): 3.12 ± 0.075
protein stability index (ubr1∆): 3.2 ± 0.064

LLDNEIRIFRSELQRLS [RPT5]
protein stability index (doa10∆): 2.4 ± 0.26
protein stability index (san1∆): 3.09 ± 0.076
protein stability index (ubr1∆): 3.03 ± 0.21

LLDTNSLEENAMSTVTL [SKI6]
protein stability index (doa10∆): 3.11 ± 0.086
protein stability index (pdr5∆): 3.04 ± 0.066
protein stability index (san1∆): 3.04 ± 0.083
protein stability index (ubr1∆): 2.89 ± 0.061

LLEETQAKLKKNVETLE [SMC4]
protein stability index (doa10∆): 3.39 ± 0.092
protein stability index (pdr5∆): 3.18 ± 0.085
protein stability index (san1∆): 3.31 ± 0.08
protein stability index (ubr1∆): 3.51 ± 0.071

LLEFFELVFSKGVYLIL [YML103C/NUP188]
protein stability index (doa10∆): 2.13 ± 0.087
protein stability index (pdr5∆): 2.4 ± 0.093
protein stability index (san1∆): 1.97 ± 0.093
protein stability index (ubr1∆): 2.26 ± 0.076

LLERYIGNLITRQFEGR [PRP8]
protein stability index (doa10∆): 2.59 ± 0.11
protein stability index (pdr5∆): 2.63 ± 0.18
protein stability index (san1∆): 2.43 ± 0.15
protein stability index (ubr1∆): 1.99 ± 0.071

LLFNNDFPLLKVLAAHT [RRP40]
protein stability index (doa10∆): 1.23 ± 0.13
protein stability index (pdr5∆): 1.25 ± 0.11
protein stability index (san1∆): 1.18 ± 0.12
protein stability index (ubr1∆): 1.09 ± 0.058

LLGKESFKKIIKFLLTF [YCS4]
protein stability index (doa10∆): 1.45 ± 0.063
protein stability index (pdr5∆): 1.57 ± 0.11
protein stability index (san1∆): 1.18 ± 0.16
protein stability index (ubr1∆): 1.65 ± 0.06

LLICIGTSLKVAPVSEI [SIR2]
protein stability index (doa10∆): 1.91 ± 0.11
protein stability index (pdr5∆): 2.01 ± 0.077
protein stability index (san1∆): 2.29 ± 0.18
protein stability index (ubr1∆): 1.79 ± 0.05

LLIRKLPFQRLVREIAQ [HHT1]
protein stability index (doa10∆): 1.29 ± 0.085
protein stability index (pdr5∆): 1.48 ± 0.094
protein stability index (san1∆): 1.44 ± 0.16
protein stability index (ubr1∆): 1.73 ± 0.097

LLISLNILFSLWKLLST [YLR018C/POM34]
protein stability index (doa10∆): 1.63 ± 0.071
protein stability index (pdr5∆): 1.25 ± 0.077
protein stability index (san1∆): 1.22 ± 0.21
protein stability index (ubr1∆): 1.18 ± 0.067

LLKEKPNALKPLSESLR [RRP6]
protein stability index (doa10∆): 2.71 ± 0.059
protein stability index (pdr5∆): 2.83 ± 0.065
protein stability index (san1∆): 2.91 ± 0.077
protein stability index (ubr1∆): 2.94 ± 0.044

LLKELSKNAQFICTTFR [SMC3]
protein stability index (doa10∆): 2.45 ± 0.063
protein stability index (pdr5∆): 2.01 ± 0.052
protein stability index (san1∆): 1.84 ± 0.1
protein stability index (ubr1∆): 1.94 ± 0.048

LLKKATKPEVASDMSDE [CDC53]
protein stability index (doa10∆): 2.67 ± 0.11
protein stability index (pdr5∆): 2.61 ± 0.14
protein stability index (san1∆): 2.84 ± 0.086
protein stability index (ubr1∆): 2.89 ± 0.11

LLKKKDDPSKVRLLCRS [YLR335W/NUP2]
protein stability index (doa10∆): 2.12 ± 0.047
protein stability index (pdr5∆): 1.85 ± 0.063
protein stability index (san1∆): 1.98 ± 0.089
protein stability index (ubr1∆): 2.61 ± 0.15

LLLKLASPHASVRTAVF [ECM29]
protein stability index (doa10∆): 1.88 ± 0.048
protein stability index (pdr5∆): 1.87 ± 0.043
protein stability index (san1∆): 1.57 ± 0.063
protein stability index (ubr1∆): 1.49 ± 0.029

LLLLSLFKKITNVNPSK [YML103C/NUP188]
protein stability index (doa10∆): 1.89 ± 0.03
protein stability index (pdr5∆): 1.9 ± 0.027
protein stability index (san1∆): 2.24 ± 0.038
protein stability index (ubr1∆): 1.93 ± 0.027

LLNILSGLPTCDYYNTF [RPN2]
protein stability index (doa10∆): 2.44 ± 0.1
protein stability index (pdr5∆): 2.73 ± 0.13
protein stability index (san1∆): 2.03 ± 0.16
protein stability index (ubr1∆): 2.3 ± 0.095

LLNINGSRKVAGILRGY [SMX2]
protein stability index (doa10∆): 2.64 ± 0.14
protein stability index (pdr5∆): 1.67 ± 0.12
protein stability index (san1∆): 2.25 ± 0.14
protein stability index (ubr1∆): 1.52 ± 0.14

LLPPIKIELIKNNLLIP [RPN12]
protein stability index (doa10∆): 2.16 ± 0.071
protein stability index (pdr5∆): 2.24 ± 0.062
protein stability index (san1∆): 1.75 ± 0.11
protein stability index (ubr1∆): 2.09 ± 0.044

LLREFKKLDDKPSLVDV [RPN6]
protein stability index (pdr5∆): 3.44 ± 0.25
protein stability index (san1∆): 3.27 ± 0.26

LLREKQRVRNMRELGLI [YOR098C/NUP1]
protein stability index (doa10∆): 1.19 ± 0.19
protein stability index (pdr5∆): 1.14 ± 0.13
protein stability index (ubr1∆): 1.13 ± 0.19

LLRNLESKMRQQEAKYR [YDL088C/ASM4]
protein stability index (doa10∆): 1.22 ± 0.058
protein stability index (pdr5∆): 1.61 ± 0.072
protein stability index (san1∆): 1.39 ± 0.14
protein stability index (ubr1∆): 1.36 ± 0.059

LLSDVNQNQRNVNETMS [SMC3]
protein stability index (doa10∆): 3.06 ± 0.12
protein stability index (pdr5∆): 2.89 ± 0.054
protein stability index (san1∆): 3.04 ± 0.062
protein stability index (ubr1∆): 3.01 ± 0.082

LLSEHDDHNGEVWSVSW [YGL100W/SEH1]
protein stability index (doa10∆): 2.62 ± 0.068
protein stability index (pdr5∆): 2.8 ± 0.069
protein stability index (san1∆): 2.36 ± 0.079
protein stability index (ubr1∆): 2.66 ± 0.1

LLSIPISCPLIGVIQLA [FAS1]
protein stability index (doa10∆): 1.23 ± 0.07
protein stability index (pdr5∆): 1.27 ± 0.068
protein stability index (san1∆): 1.23 ± 0.12
protein stability index (ubr1∆): 1.08 ± 0.064

LLSKLLLKHPFKAIHGS [YCS4]
protein stability index (doa10∆): 2.37 ± 0.051
protein stability index (pdr5∆): 2.09 ± 0.05
protein stability index (san1∆): 1.67 ± 0.059
protein stability index (ubr1∆): 2.44 ± 0.035

LLSLISTTAALQSISSL [RPN7]
protein stability index (doa10∆): 1.94 ± 0.053
protein stability index (pdr5∆): 1.95 ± 0.05
protein stability index (san1∆): 1.77 ± 0.075
protein stability index (ubr1∆): 2.24 ± 0.049

LLSQFGIKVLPETCLFV [YML103C/NUP188]
protein stability index (doa10∆): 2.1 ± 0.075
protein stability index (pdr5∆): 1.55 ± 0.058
protein stability index (san1∆): 1.18 ± 0.14
protein stability index (ubr1∆): 1.33 ± 0.059

LLTNSNNGSSNNNTQNT [SNF5]
protein stability index (doa10∆): 2.99 ± 0.082
protein stability index (pdr5∆): 3.25 ± 0.084
protein stability index (san1∆): 3.17 ± 0.069
protein stability index (ubr1∆): 3.18 ± 0.055
